Results reported in the supplement of paper PMC12042874.
± gives the uncertainty stated by the source.

assay: amyloid nucleation score (Sup35N fusion, yeast selection) (log enrichment); library NNK2; higher = more nucleation; inactive = no reads after selection
Procedure, shortened: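 The nucleation score is the log enrichment of output over input reads, calculated with DiMSum and centred on the mode score of non-aggregating sequences. Sequences with under 100 input reads were excluded. Reads came from Illumina sequencing of plasmid inserts from psi-negative yeast expressing Sup35N fused to peptides of 20 random codons, induced 24 hours with 100 μM copper sulfate and grown 7 days at 30°C without adenine and uracil.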

Substance | amyloid nucleation score
TLYSVSLGKEFYYG | 0.192 ± 0.46
TMFASHFCWYALYYVCILNF | 0.066 ± 1
TMHCSSLPQTSLVGTNHNAD | -0.327 ± 0.28
TMIKSQMLYFSGLATRLRLG | 0.098 ± 0.26
TMIRYVERMVDNLFRNCRLP | 0.827 ± 0.2
TMLSESTVQTKRVRMQESRR | 7.03 ± 0.071
TMSHEFV | 0.085 ± 0.6
TMSPCINASIFWDYA | 3.08 ± 0.05
TNAACSPLTCGHQMAVSPNY | 0.358 ± 0.32
TNADGRTGT | -0.385 ± 0.39
TNCGRVINRSSVVHAFNYGV | inactive
TNDLIRKFTLYMNQCDFNWS | -0.633 ± 1.1
TNFYWY | 3.23 ± 0.065
TNLCVPFVYEHFGCYGYN | 3.83 ± 0.12
TNRGSQNGLMFFDRSWKGYG | -0.467 ± 0.5
TNSSRISLNLGVLRGAQKDS | -1.08 ± 0.45
TNTSFQRCGLWLTMGYGRYH | -0.286 ± 0.3
TNVINRCLSPCFGRSLFNIV | -0.805 ± 1.1
TPAWQLYGHTVLAGVQKNMV | -0.077 ± 0.37
TPMFHILLYFLNWCYCILVA | 0.165 ± 1
TPSDLVDINMDHAFCELCRR | 0.413 ± 0.45
TPSKKDGECWNFYRTMWFTG | -0.492 ± 0.79
TQDDAHQVRGQCVPSENIGP | 1.96 ± 0.21
TRADDL | 0.205 ± 0.4
TRAWITWAKVWRSQMNRGKA | 0.699 ± 0.54

Substance | amyloid nucleation score
TRDAVGVLTLSSTLTTCSTC | -0.26 ± 0.35
TRDCHYMVGRLMIEWFQSVW | -0.063 ± 0.21
TRDILGRGVDQFFIVSYRFN | -1.11 ± 0.45
TRDNST | 0.32 ± 0.53
TRFILYLGCDE | -1.25 ± 0.54
TRNGWGSTGSLQRSQVSVWS | 0.25 ± 0.42
TRPCMFFRIELISLSTVLAR | 0.552 ± 0.46
TRSDMLVLLCIIMCFSYSYP | 6.31 ± 0.09
TRSPEYNCRSVEGTVSDKDK | -0.832 ± 0.49
TRSTNVQLDPYFYLW | -1.16 ± 0.39
TRWCYSDFPMVKLFLLKFIT | 0.416 ± 0.8
TRYIADRAVVSNRC | 0.81 ± 0.31
TRYSILVDRRNRIFVVADPD | 0.615 ± 0.32
TSAENRLMMAEARKYCVRSF | 3.66 ± 0.087
TSCHRLWLLFMCIAGG | -0.199 ± 0.79
TSDLNNSSSMKAYSNEHSGC | 0.411 ± 0.4
TSFGCWSQAYKMMRFDLCSV | -0.145 ± 0.21
TSFHYCCSR | 6.146 ± 0.03
TSFLPELRGLYGRAIVARNY | -1.39 ± 1.1
TSGMNDITR | -0.093 ± 0.23
TSGQNESDA | 0.578 ± 0.81
TSIILGFFLMTTLQN | inactive
TSLGNL | -0.825 ± 1.1
TSLSVVSGFLAFSGSPHSGT | 4.39 ± 0.05
TSLVLCYLTIELSVLISSGN | 0.221 ± 0.36

Substance | amyloid nucleation score
TSPSYVTSCYRFVKEIDHWK | -1.29 ± 1.1
TSRWDWIINSVRHIYWFSCF | 4.26 ± 0.12
TSVCM | 3.89 ± 0.1
TSWSLVVVKVDIWPNQSVWV | -0.391 ± 0.55
TSYKVVLVTYRT | 5.81 ± 0.074
TSYRVRGVGSSELCGSLKLR | 0.627 ± 0.36
TTDGNQAISVKLMTYLTRPL | -0.187 ± 0.41
TTEYG | 0.239 ± 0.5
TTFIRLVIITPWV | 2.75 ± 0.15
TTIFYKPLQCLLGLFFYP | -0.623 ± 1
TTMWYTS | -0.837 ± 1.1
TTQDATLIVNSCNTFTLQVY | -0.389 ± 0.29
TTTESMRIWPTNRFKRCTLQ | 0.582 ± 0.2
TVAKSLVYLSVCQVAA | 0.035 ± 1
TVAMSGASQYDEYVSESMMT | 0.061 ± 0.27
TVFNR | 0.236 ± 0.3
TVFPMREIEVLFDSIWYGFN | 1.71 ± 0.096
TVGGNQTLSKLFWSFQGMFW | inactive
TVKNRA | 0.694 ± 0.51
TVLFKGLRYRRNFKFGTQTT | -0.056 ± 0.76
TVMLFIVHLPCDRTFYL | 0.682 ± 0.45
TVNFYKRWSDCQLMSFIVRV | inactive
TVSLTWEKYNEQIHA | 0.399 ± 0.74
TVYEMGASMLVKILHWKVLN | -0.801 ± 0.38
TVYIYSLVSRNKEVMFFTD | inactive

Substance | amyloid nucleation score
TVYSGILKSY | -0.574 ± 1
TWDVNVLHVYLSMSSTTLHF | -0.46 ± 0.45
TWKTSLS | inactive
TWRLACRFLL | -0.12 ± 0.56
TWSHTPNALWMDALRSTLQA | 1.05 ± 0.38
TYHIYFVCLKSLWRFGEDCL | 4.37 ± 0.055
TYHYLMYLLVRRNMGDVNGA | 3.49 ± 0.097
TYKEYCGE | -0.693 ± 0.78
TYLMSFICNNLRVDIANINR | 0.141 ± 0.3
TYLNLLSNAMNVAWFS | 2.83 ± 0.19
TYLVQWMCCRWMPMHFRIMT | -0.369 ± 0.79
TYLWSLGYVSFQL | -0.206 ± 0.79
TYMSYFSSTWKILVGAHWRR | 1.85 ± 0.18
TYPHVLTP | -0.022 ± 0.37
VACETRRRA | 4.948 ± 0.04
VACHVR | 0.975 ± 0.4
VAEVKRLHIYWRAPSFRSAN | -0.596 ± 0.79
VAEYGLENDWFLHWQICMNS | -0.618 ± 0.48
VAFKSTLQVLVANKFG | -0.627 ± 1
VAGSS | -0.101 ± 0.29
VALVSGVNNTKDMSRAPNRV | -0.19 ± 0.36
VATLRSRHFDEHSHVVFSSS | 0.236 ± 0.29
VCDRFWFSLDLWLFIRTFRF | -0.679 ± 1.1
VCDVLYKFGYSKN | 4.89 ± 0.058
VCGVNV | -0.363 ± 1.1

Substance | amyloid nucleation score
VCSNCNMDVTSYQASCKAYL | 0.783 ± 0.53
VCSTLVSFHHQRVKKVDAV | -1.12 ± 0.78
VCTWYRVAIDRRINIS | 1.96 ± 0.066
VDCWMSISCQDYDSKFKVKS | 0.242 ± 0.77
VDHLFIRIHSVMIPAL | -0.447 ± 1.1
VDIEDGLG | 0.13 ± 0.22
VDITRWIDVMVYF | -0.19 ± 0.62
VDIWVWVG | 0.456 ± 0.6
VDLGMPSLWRSDGASPGGFF | 0.277 ± 0.49
VDRFFLEARCLELTSQ | 0.34 ± 0.5
VDRRNAKYWRGRKSTWVRGV | 1.3 ± 0.26
VDRWDGSVHCSIGGNFYCSG | -0.545 ± 0.54
VEFLWGFWWYKPQRKSVGST | -1.54 ± 0.75
VEFVVPKI | -0.586 ± 1.1
VEINNNE | -0.065 ± 0.56
VEMRLGRDEIFNRHQKGIYA | 2.02 ± 0.36
VEREDVHKGRRFAQACNNLV | 0.495 ± 0.41
VETYT | 0.022 ± 0.65
VEYINWRFIRNTYSVE | 2.14 ± 0.12
VFAMDYDVCDNSTCHKGV | -0.057 ± 0.21
VFAYYIDRARSSRVPCTVAN | 4.28 ± 0.12
VFDAKTFGGDTVFVAAEAHS | -0.669 ± 1
VFDSPLHQWFYIKLIMLSTL | inactive
VFDVISI | -0.064 ± 0.76
VFEAIMVYSFRRYFPPYGAF | 2.62 ± 0.098

Substance | amyloid nucleation score
VFEYFRCPYIHNLLFFSAWL | 1.9 ± 0.19
VFFGPTFCFVPYVNMRCLVP | 8.082 ± 0.059
VFFLFYTMWRLVYFEPNMKS | -1.25 ± 0.62
VFGSVADMHM | inactive
VFKFMNMTYEYRAGKGITVH | inactive
VFLSGINH | -1.18 ± 1.1
VFQIHYMVGNVVCTWSWPNV | 4.27 ± 0.056
VFRYAGRCRNGIVGLYGATM | 4.677 ± 0.046
VFSNWVNVVWS | 5.172 ± 0.039
VFSSFWVYKLYEFEASSNVR | -0.371 ± 0.45
VFTCGVVPYPYKNTLKYKCF | -0.319 ± 0.4
VFTSFVG | 0.536 ± 0.46
VFVEVDVTGFNFRLE | -1.18 ± 0.48
VFWHMSIIHIVCRIILSKDW | inactive
VFYCKRVAMDNTSCRNSSYL | -0.536 ± 0.31
VGDWVQQVVFTRRSTSSRRV | inactive
VGFISDNYYWYNPKVNGIWV | -0.834 ± 0.27
VGFRRVTNMDRCSFSLCCCW | 4.56 ± 0.064
VGHSIEALELTPIVVRYTYL | -0.341 ± 0.45
VGKRIVHIFCVEFGSLMGC | inactive
VGLVMHGIVLCLMLSHMSWR | 0.354 ± 0.41
VGRGASRNFSCFSLVKFREK | 3 ± 0.062
VGRQSCFVYMWCWTYHMWGL | 1.37 ± 0.32
VGRRSSKYESAELRVGSEVV | 1.71 ± 0.12
VGSSRFLRDGVTRGLSMSGS | -1.07 ± 0.41

Substance | amyloid nucleation score
VGVFNFAGTTTSVGVNVSYT | 2.78 ± 0.1
VGVLNSIKPYLCVSAKRKCV | 0.09 ± 0.74
VGVLSEDIYCSAQPYLGRSG | 0.331 ± 0.4
VGVVGYVETSLLGLRRCG | -0.976 ± 0.54
VGVVLFFFVLCYWVKT | -0.79 ± 0.41
VHCCFGACGCSSWRLNLLAS | 0.092 ± 0.49
VHIMNSLVGSIVLGSSRRLS | 5.77 ± 0.062
VHRLC | 1.38 ± 0.47
VHSGLYAKCVRLYMQNFPHL | 0.192 ± 0.79
VHTAFRETLYRRDKMLCGMR | -0.709 ± 0.63
VIAVCLVLVSSDVKIGTRMG | 1.84 ± 0.16
VIGAGCIEKQRTVEAGGCRG | 1.23 ± 0.35
VIGCAQWFYFADMRGMPRNQ | 4.95 ± 0.076
VILAIGNFSRI | 3.08 ± 0.081
VILVSVASINSRCVIGFSKF | 4.64 ± 0.07
VILYNGFDLSGSD | 0.286 ± 0.44
VISHRKPFE | -0.283 ± 1
VITGYCA | 2.48 ± 0.094
VITSYVRRQCVKFCCGARCR | 8.347 ± 0.054
VIWIRTIKMHACTYVQQDVL | 0.806 ± 0.45
VIYRSNLASRGMNHAVFSKR | -0.92 ± 0.28
VKGVWWYRIMS | 0.785 ± 0.51
